This is an account of results in PMC3478510, “LI-cadherin cis-dimerizes in the plasma membrane Ca^2+ independently and forms highly dynamic trans-contacts” (Cellular and Molecular Life Sciences: CMLS, 2012).

The target in experiment [1] is LI-cadherin ECD (Homo sapiens) (UniProt Q12864). To be noted: cited from earlier work.
The target in experiment [2] is T1, LI-cadherin C-terminally tagged with cyan (LI-CFP) or yellow (LI-YFP) fluorescent protein (UniProt Q9R100 26-827).
T1 construct: LI-cadherin (cadherin-17); Two differently tagged copies of the same protein (CFP donor, YFP acceptor), co-expressed for FRET; In the control with EGFR-CFP only the YFP-tagged copy was present; also called LI-cadherin-CFP fusion protein; LI-cadherin-YFP fusion protein; source: HEK293, transfected (FuGENE-6), in living cells; not shown: CFP (on one copy) or YFP (on the other copy), C-terminal, kept
T1 sequence (looked up): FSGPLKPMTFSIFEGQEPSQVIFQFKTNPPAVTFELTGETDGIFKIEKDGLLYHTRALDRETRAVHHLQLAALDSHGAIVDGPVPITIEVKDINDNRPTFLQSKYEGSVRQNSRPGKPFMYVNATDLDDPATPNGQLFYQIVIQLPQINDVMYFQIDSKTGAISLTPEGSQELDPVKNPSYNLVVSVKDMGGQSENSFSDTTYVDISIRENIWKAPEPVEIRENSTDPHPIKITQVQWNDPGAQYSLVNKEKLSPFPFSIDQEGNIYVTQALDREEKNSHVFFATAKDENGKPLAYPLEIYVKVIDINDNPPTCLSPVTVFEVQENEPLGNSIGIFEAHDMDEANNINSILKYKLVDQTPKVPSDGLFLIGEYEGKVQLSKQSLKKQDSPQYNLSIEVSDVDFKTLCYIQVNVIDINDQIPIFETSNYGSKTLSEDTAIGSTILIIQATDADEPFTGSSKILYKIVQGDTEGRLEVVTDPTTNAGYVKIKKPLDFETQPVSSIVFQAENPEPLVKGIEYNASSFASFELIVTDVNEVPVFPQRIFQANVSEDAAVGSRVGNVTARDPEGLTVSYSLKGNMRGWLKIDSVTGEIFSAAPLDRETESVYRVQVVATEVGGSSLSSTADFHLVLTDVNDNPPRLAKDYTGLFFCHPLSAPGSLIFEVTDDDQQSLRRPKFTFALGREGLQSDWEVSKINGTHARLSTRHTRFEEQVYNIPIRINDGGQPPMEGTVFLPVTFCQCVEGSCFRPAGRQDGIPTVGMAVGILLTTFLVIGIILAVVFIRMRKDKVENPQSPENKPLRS
Nature of the experiment: FRET or BRET; FRET competition: twofold excess of untagged LI-cadherin coexpressed with LI-CFP and LI-YFP in HEK293 cells; acceptor photobleaching. To be noted: partners not purified. (In BRET a luciferase serves as donor, and the signal depends on an acceptor being close.)

A word on the Kd: it is the equilibrium constant for the complex coming apart. As to LI-cadherin ECD (from UniProt Q12864), the dissociation constant (Kd) in experiment [1] was 27 µM.

B1: untagged LI-cadherin (natural protein, UniProt Q9R100 26-827, looked up)
chain: FSGPLKPMTFSIFEGQEPSQVIFQFKTNPPAVTFELTGETDGIFKIEKDGLLYHTRALDRETRAVHHLQLAALDSHGAIVDGPVPITIEVKDINDNRPTFLQSKYEGSVRQNSRPGKPFMYVNATDLDDPATPNGQLFYQIVIQLPQINDVMYFQIDSKTGAISLTPEGSQELDPVKNPSYNLVVSVKDMGGQSENSFSDTTYVDISIRENIWKAPEPVEIRENSTDPHPIKITQVQWNDPGAQYSLVNKEKLSPFPFSIDQEGNIYVTQALDREEKNSHVFFATAKDENGKPLAYPLEIYVKVIDINDNPPTCLSPVTVFEVQENEPLGNSIGIFEAHDMDEANNINSILKYKLVDQTPKVPSDGLFLIGEYEGKVQLSKQSLKKQDSPQYNLSIEVSDVDFKTLCYIQVNVIDINDQIPIFETSNYGSKTLSEDTAIGSTILIIQATDADEPFTGSSKILYKIVQGDTEGRLEVVTDPTTNAGYVKIKKPLDFETQPVSSIVFQAENPEPLVKGIEYNASSFASFELIVTDVNEVPVFPQRIFQANVSEDAAVGSRVGNVTARDPEGLTVSYSLKGNMRGWLKIDSVTGEIFSAAPLDRETESVYRVQVVATEVGGSSLSSTADFHLVLTDVNDNPPRLAKDYTGLFFCHPLSAPGSLIFEVTDDDQQSLRRPKFTFALGREGLQSDWEVSKINGTHARLSTRHTRFEEQVYNIPIRINDGGQPPMEGTVFLPVTFCQCVEGSCFRPAGRQDGIPTVGMAVGILLTTFLVIGIILAVVFIRMRKDKVENPQSPENKPLRS
notes: LI-cadherin (cadherin-17), untagged wild type; The expression construct of the untagged protein is not described in the methods; also called LIwt; wild-type LI; source: HEK293, transfected, in living cells (twofold excess, coexpressed with LI-CFP and LI-YFP)
Take B1: the “FRET efficiency of LI-CFP/LI-YFP with a twofold excess of untagged LI-cadherin” value in experiment [2] is 5.2%.
